For the data set the following is noted: Bacillus caldolyticus; pH 7; 25 °C; GdnHCl; Fluorescence; sodium cacodylate 100 mM; reversible: yes; whole UniProt chain shown.

B1: Cold shock protein CspB wild type, P41016 (protein)
chain: MQRGKVKWFNNEKGYGFIEVEGGSDVFVHFTAIQGEGFKTLEEGQEVSFEIVQGNRGPQAANVVKL
In the case of B1, the denaturant m value worked out at 1.53 kcal/mol/M, the “denaturant midpoint (higher = more stable)” value was 2.36 M and the unfolding free energy came to 3.63 kcal/mol.

The values above are taken from FireProtDB (doi:10.1016/j.jmb.2003.11.050).
